14 molecules from patent publication US7514534 can be followed below.

This assay concerns the target T1, MMP-26 (human).
T1 sequence: ASDF
Put plainly: cell-based or functional assay.

B1: A04 (antibody, human IgG4, V domains shown)
VH: EVQLLESGGGLVQPGGSLRLSCAASGFTFSEYNMAWVRQAPGKGLEWVSRIGSSGGKTKYADSVKGRFTISRDNSKNTLYLQMNSLRAEDTAVYYCARDEAPDYGDDAEAFDIWGQGTMVTVSS
VL: QSALTQPPSASGTPGQRVTISCSGGYSNMGSNYAHWYQQVPGTAPKLLIYNNNQRPSGVPDRFSGSKSGTSASLAISGLRSEDEADYYCAAWDENLSGPVFGTGTKVTVLG
Turning to B1, the % Inhibition of JEG-3 cell invasion, 5 µg/ml (first test) came to 6% and the % Inhibition of JEG-3 cell invasion, 25 µg/ml (first test) was 27%.

B2: B10 (antibody, human IgG4, V domains shown)
VH: EVQLLESGGGLVQPGGSLRLSCAASGFTFSSYAMMWVRQAPGKGLEWVSWIVPSGGTTFYADSVKGRFTISRDNSKNTLYLQMNSLRAEDTAVYYCARGLYRWGQGTLVTVSSASTKGPSVFP
VL: DIQMTQSPSSLSASVGDRVTIACRTSQNVNRYLNWYQHKLGQAPKLLIYGATILQSGVPSRFRGSGSGTDFILTITNLQPEDFAVYYCQQTYSPPLTFGQGTKAEFKGTVAAPSV
Consider B2, for which the % Inhibition of JEG-3 cell invasion, 1 µg/ml (further test) was determined as 6%; the % Inhibition of JEG-3 cell invasion, 5 µg/ml (first test) was 48%; the % Inhibition of JEG-3 cell invasion, 5 µg/ml (further test) stood at 5%; the % Inhibition of JEG-3 cell invasion, 25 µg/ml (first test) amounted to 26%. The molecule further had a % Inhibition of JEG-3 cell invasion, 25 µg/ml (further test) of 11% and a % Inhibition of JEG-3 cell invasion, 50 µg/ml (further test) of 22%.

B3: A1-orig (antibody, human IgG4, V domains shown)
VH: EVQLLESGGGLVQPGGSLRLSCAASGFTFSYYRMSWVRQAPGKGLEWVSSIGPSGGDTLYADSVKGRFTISRDNSKNTLYLQMNSLRAEDTAVYYCARSFSSGPYYFDYWGQGTLVTVSS
VL: QSVLTQPPSASGTPGQRVIISCSGSSSNIGSHYVHWYQQVPGTAPKLLIYRNGQRPSGVPDRFSGFKSGTSASLAISGLRSEDEANYYCATWDDSVLFGGGTTLTVLG
For B3, the % Inhibition of JEG-3 cell invasion, 1 µg/ml (further test) worked out at 53%; the % Inhibition of JEG-3 cell invasion, 5 µg/ml (first test) was 40%; the % Inhibition of JEG-3 cell invasion, 5 µg/ml (further test) was 58%; the % Inhibition of JEG-3 cell invasion, 25 µg/ml (first test) was determined as 66%. This molecule showed a % Inhibition of JEG-3 cell invasion, 25 µg/ml (further test) of 64% and a % Inhibition of JEG-3 cell invasion, 50 µg/ml (further test) of 74%.

B4: A01 (antibody, human IgG4, V domains shown)
VH: EVQLLESGGGLVQPGGSLRLSCAASGFTFSAYNMFWVRQAPGKGLEWVSGIGSSGGIAPYADSVKGRFTISRDNSKNTLYLQMNSLRAEDTAVYYCARAAYEVENWFDPWGQGTLVTVSS
VL: DIQMTQSPGTLSLSPGERATLSCRASQIVRSTYLAWYQQKPGQAPRLLIYGTSSRATGVPDRFSGSGSGTDFTLTISGLEPEDFALYYCQRYGDSPPITFGQGTRLEITR
On to B4, for which the % Inhibition of JEG-3 cell invasion, 1 µg/ml (further test) came out at 30%; the % Inhibition of JEG-3 cell invasion, 5 µg/ml (first test) is 19%; the % Inhibition of JEG-3 cell invasion, 5 µg/ml (further test) worked out at 47%; the % Inhibition of JEG-3 cell invasion, 25 µg/ml (first test) was found to be 51%. Also, the % Inhibition of JEG-3 cell invasion, 25 µg/ml (further test) turned out to be 54% and the % Inhibition of JEG-3 cell invasion, 50 µg/ml (further test) was determined as 70%.

B5: B06 (antibody, human IgG4, V domains shown)
VH: EVQLLESGGGLVQPGGSLRLSCAASGFTFSQYFMKWVRQAPGKGLEWVSSISPSGGLTQYADSVKGRFTISRDNSKNTLYLQMNSLRAEDTAVYYCARGGIEAPGSPSDYWGQGTLVTVSS
VL: DIQMTQSPSFLSASVGDRVTITCRASQGISSYLAWYQQKPGKAPKLLIYAASTLQSGVPSRFSGSGSGTDFTLTISSLEPEDFATYYCQESYSTPFFTFGPGTKVDIRR
In turn, B5 displayed a % Inhibition of JEG-3 cell invasion, 5 µg/ml (first test) of 34% and a % Inhibition of JEG-3 cell invasion, 25 µg/ml (first test) of 30%.

B6: C04 (antibody, human IgG4, V domains shown)
VH: EVQLLESGGGLVQPGGSLRLSCAASGFTFSMYFMVWVRQAPGKGLEWVSWIGSSGGETPYADSVKGRFTISRDNSKNTLYLQMNSLRAEDTAVYYCARGYSSGWYVMGDYWGQGTLVTVSS
VL: QSALTQPPSASGTPGQRVTISCSGTSSNIGSHYVFWYQQLPGTAPKLLIHRNDERPSGVPDRFSGSKSGTSASLAISGLQSEDEADYYCATWDDNLNGPVFGGGTKLT
Take B6: the % Inhibition of JEG-3 cell invasion, 1 µg/ml (further test) worked out at 1%; the % Inhibition of JEG-3 cell invasion, 5 µg/ml (first test) was 35%; the % Inhibition of JEG-3 cell invasion, 5 µg/ml (further test) was determined as 11%; the % Inhibition of JEG-3 cell invasion, 25 µg/ml (first test) was 36%. This molecule came in with a % Inhibition of JEG-3 cell invasion, 25 µg/ml (further test) of 18% and a % Inhibition of JEG-3 cell invasion, 50 µg/ml (further test) of 32%.

B7: D6-orig (antibody, human IgG4, V domains shown)
VH: EVQLLESGGGLVQPGGSLRLSCAASGFTFSMYSMRWVRQAPGKGLEWVSSIYPSGGSTEYADSVKGRFTISRDNSKNTLYLQMNSLRAEDTAVYYCAREGGENDYWGQGTLVTVSS
VL: DIQMTQSPLSLSASVGDRVAITCRASQSIDTYLNWYQQKPGKAPKLLIYAASKLEDGVPSRFSGSGTGTDFTLTIRSLQPEDFASYFCQQSYSSPGITFGPGTKVEIKR
With B7, the % Inhibition of JEG-3 cell invasion, 1 µg/ml (further test) is 42%; the % Inhibition of JEG-3 cell invasion, 5 µg/ml (first test) came out at 41%; the % Inhibition of JEG-3 cell invasion, 5 µg/ml (further test) worked out at 55%; the % Inhibition of JEG-3 cell invasion, 25 µg/ml (first test) is 52%. The molecule further yielded a % Inhibition of JEG-3 cell invasion, 25 µg/ml (further test) of 70% and a % Inhibition of JEG-3 cell invasion, 50 µg/ml (further test) of 35%.

B8: H6-orig (antibody, human IgG4, V domains shown)
VH: EVQLLESGGGLVQPGGSLRLSCAASGFTFSQYWMNWVRQAPGKGLEWVSGIGPSGGITYYADSVKGRFTISRDNSKNTLYLQMNSLRAEDTAVYYCARGEEDGYNSDYWGQGTLVTVSS
VL: QSELTQPPSASGSPGQSVTISCTGTSSDVGAYNYVSWYQQHPGKAPKLIIYEVNKRPSGVPDRFSASKSGNTASLTVSGLQAEDEADYYCNSYAGSNSLIFGGGTKLTVLG
As for B8, the % Inhibition of JEG-3 cell invasion, 1 µg/ml (further test) was found to be 49%; the % Inhibition of JEG-3 cell invasion, 5 µg/ml (first test) amounted to 24%; the % Inhibition of JEG-3 cell invasion, 5 µg/ml (further test) came out at 52%; the % Inhibition of JEG-3 cell invasion, 25 µg/ml (first test) was found to be 50%. The % Inhibition of JEG-3 cell invasion, 25 µg/ml (further test) came out at 57% and the % Inhibition of JEG-3 cell invasion, 50 µg/ml (further test) is 39%.

B9: C05 (antibody, human IgG4, V domains shown)
VH: EVQLLESGGGLVQPGGSLRLSCAASGFTFSSYQMDWVRQAPGKGLEWVSRIVPSGGDTTYADSVKGRFTISRDNSKNTLYLQMNSLRAEDTAVYYCARHVYYDSSDYFPNPFDYWGQGTLVTVSS
VL: QSELTQPPSVSGTPGQRVTISCSGSSSNIGSEYVYWFQQLPGTAPRLLIYRNDQRPSGVPDRFSGSKSGTSASLAISGLRSEDETDYYCTTWDDSLSGPVFGGGTKLTVLG
B9 yielded a % Inhibition of JEG-3 cell invasion, 5 µg/ml (first test) of 16% and a % Inhibition of JEG-3 cell invasion, 25 µg/ml (first test) of 32%.

B10: A11 (antibody, human IgG4, V domains shown)
VH: EVQLLESGGGLVQPGGSLRLSCAASGFTFSWYTMMWVRQAPGKGLEWVSRISPSGGHTLYADSVKGRFTISRDNSZNTLYLQMNSLRAEDTAVYYCARDTWDDYYDSSGYYNDFDYWGQGTLVTVSS
VL: QSALTQPPSVSLAPGQTARITCGGNNIGTKSVHWYQQKPGQAPVLVVYDDSDRPSGIPERFSGSNSGNTATLTISRVEAGDEADYYCQVWDSGSDHQVFGGGTKLTVLG
Regarding B10, the % Inhibition of JEG-3 cell invasion, 1 µg/ml (further test) is 51%; the % Inhibition of JEG-3 cell invasion, 5 µg/ml (first test) was determined as 28%; the % Inhibition of JEG-3 cell invasion, 5 µg/ml (further test) was determined as 54%; the % Inhibition of JEG-3 cell invasion, 25 µg/ml (first test) worked out at 56%. For the same molecule, the % Inhibition of JEG-3 cell invasion, 25 µg/ml (further test) turned out to be 59% and the % Inhibition of JEG-3 cell invasion, 50 µg/ml (further test) was 73%.

B11: C11 (antibody, human IgG4, V domains shown)
VH: EVQLLESGGGLVQPGGSLRLSCAASGFTFSEYPMWWVRQAPGKGLEWVSWIYPSGGNTDYADSVKGRFTISRDNSKNTLYLQMNSLRAEDTAVYYCAIPYCSSSSCPLHWGQGTLVTVSS
VL: QSELTQPPSASGSPGQSVTISCTGTSSDVGGYNYVSWYQQHPDKAPKLLIYEVTQRPSGVPDRFSGSRSGNTASLTVSGLQAEDEADYYCSSYAGRNNLYVFGPGTKVTVLG
Turning to B11, the % Inhibition of JEG-3 cell invasion, 5 µg/ml (first test) worked out at 28% and the % Inhibition of JEG-3 cell invasion, 25 µg/ml (first test) stood at 29%.

B12: C01 (antibody, human IgG4, V domains shown)
VH: EVQLLESGGGLVQPGGSLRLSCAASGFTFSNYGMSWVRQAPGKGLEWVSVIGPSGGITMYADSVKGRFTISRDNSKNTLYLQMNSLRAEDTAVYYCATGSSSGWYPNFDYWGQGTLVTVSS
VL: DIQMTQSPSTLSASVGDRVTITCRASQSIGNWLAWYQQKPGEAPHLLIYQASSLEGGVPSRFSGSGSGTKFTLNISSLQPDDFATYYCQQYNSYSYTFGQGTKLDIKR
For the molecule B12, the % Inhibition of JEG-3 cell invasion, 1 µg/ml (further test) was -2%; the % Inhibition of JEG-3 cell invasion, 5 µg/ml (first test) turned out to be 43%; the % Inhibition of JEG-3 cell invasion, 5 µg/ml (further test) came out at 16%; the % Inhibition of JEG-3 cell invasion, 25 µg/ml (first test) turned out to be 34%. The % Inhibition of JEG-3 cell invasion, 25 µg/ml (further test) is 21% and the % Inhibition of JEG-3 cell invasion, 50 µg/ml (further test) came out at 42%.

B13: B04 (antibody, human IgG4, V domains shown)
VH: EVQLLESGGGLVQPGGSLRLSCAASGFTFSFYWMMWVRQAPGKGLEWVSGISSSGGFTKYADSVKGRFTISRDNSKNTLYLQMNSLRAEDTAVYYCARETSRRAFDIWGQGTMVTVSS
VL: DIQMTQSPSSVSASVGDRVTITCRASQGISKSLAWYQQKPGKAPKLLVYGAFSLESGVPSRFSGTGAGTDFILTISRLQPEDFATYYCQQANSFPLTFGGGTKVEIKR
B13 came in with a % Inhibition of JEG-3 cell invasion, 5 µg/ml (first test) of 36% and a % Inhibition of JEG-3 cell invasion, 25 µg/ml (first test) of 14%.

B14: C08 (antibody, human IgG4, V domains shown)
VH: EVQLLESGGGLVQPGGSLRLSCAASGFTFSYYEMMWVRQAPGKGLEWVSSISPSGGPTMYADSVKGRFTISRDNSKNTLYLQMNSLRAEDTGVYYCARKMGRVGYCSSTSCYRDDYYGMDVWGQGTTVTVSS
VL: DIQMTQSPPSLSALVGDRVTITCRASQSISRYVNWYQQKPGKAPKVLIYAASIVENGVPSRFSGSGSGTDFSLTISSLQPEDFATYYCQQTYSTPLTFGGGTKLAIKR
Take B14: the % Inhibition of JEG-3 cell invasion, 1 µg/ml (further test) was determined as 34%; the % Inhibition of JEG-3 cell invasion, 5 µg/ml (first test) is 45%; the % Inhibition of JEG-3 cell invasion, 5 µg/ml (further test) turned out to be 42%; the % Inhibition of JEG-3 cell invasion, 25 µg/ml (first test) was determined as 49%. This molecule also displayed a % Inhibition of JEG-3 cell invasion, 25 µg/ml (further test) of 49% and a % Inhibition of JEG-3 cell invasion, 50 µg/ml (further test) of 62%.
